The values below come from the supplement of paper PMC9170038.

The data set has as its system MS2 coat protein. Description: apparent KD of MS2 coat protein; designed switch direction (-1 OFF switch, 1 ON switch): -1; higher = weaker reporter binding. The method in brief: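 Each step of the titration lasted 0.8–1.5 h at the lowest concentration and 10–20 min at the highest. The protein, SNAP-549-labelled MS2 coat protein, went from 0.7 or 1.5 nM doubling to 3 µM over RNA switches transcribed on Illumina chips by stalled E. coli RNA polymerase. Normalised cluster fluorescence was curve-fitted, and the per-design median over clusters is given as apparent KD.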

[1] abbreviates: Eterna round: R95, input ligand: FMN 200 uM.
Setting [2] is: Eterna round: R95, input ligand: microRNA oligo, concentration not stated.
Setting [3] is: Eterna round: R95, input ligand: none.
Where [4] appears, read: input ligand: microRNA oligo, concentration not stated.

For “AGUUGGCGAGGAUAUACAUGAGGAUCACCCAUGUGUGAGAUAUAAGUGAGGUAAAUAUGUAGAAGGCGCUGACA [JR_Ex3_Sub079] (Eterna round: R97, puzzle: Exclusion 3)”, the “apparent KD of MS2 coat protein” value by setting is: (input ligand: FMN 200 uM) 0.0184 µM; (input ligand: none) 0.425 µM.
Consider “AGUUGUUGUUUCCGUUCUUACAUGAGGAUCACCCAUGUUUCUUGUCGUGCUCGCGUUGCUCGUCUGGCUACCUGUUG [salish99_TOv1_r3_068] (puzzle: Sensor v3, turn-off variant 1)”, for which the “apparent KD of MS2 coat protein” value is, setting by setting: under setting [1], 0.0339 µM; under setting [2], 0.034 µM; under setting [3], 0.0438 µM.
Regarding “AGUUUACAUGAGGAUCACCCAUGUGAGGAUAUGGAUUCGCUGGCCGUAGCCAGUGGAUCCAGAAGGCGCGUGAU [JL-ex1-4.29] (Eterna round: R97, puzzle: Exclusion 1)”, the “apparent KD of MS2 coat protein” value is, setting by setting: (input ligand: FMN 200 uM) 0.186 µM; (input ligand: none) 0.101 µM.
For “AUAAAGCAAGCAUGGUCCCACAUGAGGAUCACCCAUGUGUUCGUCUUAUAGGCUGCUGUGGCUUUUGCCUCGUUGGC [LRO Sensor-off var1-09 loose mod of D91 from Mat747] (Eterna round: R97, puzzle: Sensor, turn-off variant 1)”, the “apparent KD of MS2 coat protein” value is, setting by setting: (input ligand: FMN 200 uM) 0.0416 µM; (input ligand: none) 0.046 µM.
As for “AUAAAUCAUGUAGGAUAUGCGUGGCGAAGCUAUGCAGAAGGACAUGAGGAUCACCCAUGUUCUUCCGUCUGCGUACAGACGGAA [Mat - Exclusion NG 1 - Mod of JL - D39] (Eterna round: R96, puzzle: Exclusion NG 1)”, the “apparent KD of MS2 coat protein” value came out at 0.297 µM (input ligand: FMN 200 uM), 0.0285 µM under setting [4] and 0.0349 µM (input ligand: none).
As for “AUAACAAGCUUUUUUUUCGUAGUACAUGACGCUCGAGUCACAUGAGGAUCACCCAUGUCUUCCUGUUUGAUUGUUGA [JR_SV3TOV2_Sub058] (puzzle: Sensor v3, turn-off variant 2)”, the “apparent KD of MS2 coat protein” value by setting is: under setting [1], 0.0458 µM; under setting [2], 0.0547 µM; under setting [3], 0.0546 µM.
As to “AUAACCGAAGGAUAUAGUCGUGAGGACAUGAGGAUCACCCAUGUGUUUCAGAUAGUCCCACUAGAAGGUCGGCGUC [Eternabot (L2) Solution 29] (Eterna round: R97, puzzle: Exclusion 5)”, the “apparent KD of MS2 coat protein” value (input ligand: FMN 200 uM) was 0.11 µM and the “apparent KD of MS2 coat protein” value (input ligand: none) was 0.0672 µM.
As to “AUAAGCUUUUAUAUCCUUAACAUGAGGAUCACCCAUGUUCGUCUUAUGAUGGUCUGAUCCCUGAGGAUCGGACCGUU [JL-sv1-2.04 Brourd Mod] (puzzle: Sensor v3, turn-off variant 1)”, the “apparent KD of MS2 coat protein” value under setting [1] stood at 0.031 µM, the “apparent KD of MS2 coat protein” value under setting [2] was 0.0765 µM and the “apparent KD of MS2 coat protein” value under setting [3] is 0.0299 µM.
Consider “AUAAGGUCAGGAUAUGCUUGGCGGAUUCUGGUGUCCAAAUGACAUGAGGAUCACCCAUGUAGAAGGGACAUCAG [Leonlexe] (Eterna round: R97, puzzle: Exclusion 2)”, for which the “apparent KD of MS2 coat protein” value was determined as 0.0124 µM (input ligand: FMN 200 uM) and 0.0141 µM (input ligand: none).
For the sequence “AUAAUAAAGGAGGAUAUCGUAUCGGAAACGAUACGAGAAGGUCUAACAUGAGGAUCACCCAUGUUCCUCAAAUA [Mat - Exclusion 6 - Eli Mod - D49] (puzzle: Exclusion 6)”, under setting [2], the “apparent KD of MS2 coat protein” value came out at 0.0409 µM.
Turning to “AUAAUACAUGAGGAUCACCCAUGUGAGGAUAUGAGCCUACAUUCACGCAGAGAGAAGGUCAGAAGGCACUUGGU [Eternabot (L2) Solution 65] (Eterna round: R97, puzzle: Exclusion 1)”, the “apparent KD of MS2 coat protein” value (input ligand: FMN 200 uM) was found to be 0.211 µM and the “apparent KD of MS2 coat protein” value (input ligand: none) was determined as 0.0633 µM.
For the sequence “AUAAUACAUGUAGGAUAUCUGCACGAUUAGUGCAGAGAAGGACAUGAGGAUCACCCAUGUAAUUAAGAUCAAUUAUUAAAUUAU [ENG1/3-D1] (Eterna round: R96, puzzle: Exclusion NG 1)”, the “apparent KD of MS2 coat protein” value is, setting by setting: (input ligand: FMN 200 uM) 0.238 µM; under setting [4], 0.0639 µM; (input ligand: none) 0.057 µM.
For “AUAAUACAUGUAGGAUAUCUGCACGUGUAGUGCAGAGAAGGACAUGAGGAUCACCCAUGUAAUUAAGAUCAAUUAUUAAAUUAU [ENG1/3-D3] (Eterna round: R96, puzzle: Exclusion NG 1)”, in that order: 0.228 µM, 0.0536 µM and 0.0756 µM.
In the case of “AUAAUGUAAGGAUAUCAGUCGUACAGCUUCGGCUGUACGACUGAGAAGGUACAUGAGGAUCACCCAUGUGAUCA [E4/8-A1] (Eterna round: R97, puzzle: Exclusion 4)”, the “apparent KD of MS2 coat protein” value (input ligand: FMN 200 uM) stood at 0.185 µM and the “apparent KD of MS2 coat protein” value (input ligand: none) was 1.68 µM.
As to “AUAAUGUGAGGAUAUCAGUAGUAUUGCCUCGGCAAUACUACUGAGAAGGCACAUGAGGAUCACCCAUGUGAUCA [E4/2-B2] (Eterna round: R97, puzzle: Exclusion 4)”, the “apparent KD of MS2 coat protein” value reads like this: (input ligand: FMN 200 uM) 0.0293 µM; (input ligand: none) 0.772 µM.
On the same counts, the results for “AUAAUGUGAGGAUAUCAGUCGACUAGCUUCGGCUAGUCGACUGAGAAGGCACAUGAGGAUCACCCAUGUAGAUC [E4/17-A1] (Eterna round: R97, puzzle: Exclusion 4)” are 0.059 µM and 0.925 µM.
In the case of “AUAAUUAAUCGAGGAUAUCAGCACGUUUAGUGCUGAGAAGGCGACAUGAGGAUCACCCAUGUGAUCAAUUAAUAUUAAUAUUAU [ENG1/11-C2] (Eterna round: R96, puzzle: Exclusion NG 1)”, the “apparent KD of MS2 coat protein” value is 0.898 µM (input ligand: FMN 200 uM), 0.23 µM under setting [4] and 0.369 µM (input ligand: none).
“AUACCACGAGGAUAUCGUCUAUUUCACAUGAGGAUCACCCAUGUUAUCUUUGUUUUGUUUCGAGAAGGCGUGUUUU [JR_E5_Sub078] (puzzle: Exclusion 5)”: the “apparent KD of MS2 coat protein” value under setting [2] stood at 0.0281 µM.
As to “AUAUACGGAGGAUAUACUUGAGGAUCACCCAAGUGGAGUCCCGUUUGGGCGGUAAAUAGUAGAAGGCCGACCCA [jl-ex3-4.43 ViennaUCT mod] (Eterna round: R97, puzzle: Exclusion 3)”, the “apparent KD of MS2 coat protein” value reads like this: (input ligand: FMN 200 uM) 0.0141 µM; (input ligand: none) 0.0165 µM.
With “AUAUAGAUAGUCAGGAUAUGCUAGUGAUAACAGUAGUAGAAGGGACAUGAGGAUCACCCAUGUAGAUACUGCAC [Brourd's EX4 #3] (Eterna round: R97, puzzle: Brourd's mod of Exclusion 4)”, the “apparent KD of MS2 coat protein” value was determined as 0.0196 µM (input ligand: FMN 200 uM) and 0.0193 µM (input ligand: none).
Regarding “AUAUAGCGAGGAUAUACAUGAGGAUCACCCAUGUGGUAGUAGAUACAGUAGAGAUAGAGUAGAAGGCGCUAUGA [EX3 #7] (Eterna round: R97, puzzle: Exclusion 3)”, the “apparent KD of MS2 coat protein” value is, setting by setting: (input ligand: FMN 200 uM) 0.416 µM; (input ligand: none) 0.0792 µM.
With “AUAUUAAUAGUAAGGAUAUGCGUAUAUGUAGUUAUGCAGAAGGUACAUGAGGAUCACCCAUGUAUUAAUGUGUA [LRO-BmodExc4-04-Oppy's Opus] (Eterna round: R97, puzzle: Brourd's mod of Exclusion 4)”, the “apparent KD of MS2 coat protein” value by setting is: (input ligand: FMN 200 uM) 0.016 µM; (input ligand: none) 0.016 µM.
Regarding “AUAUUGUGAGGAUAUGAACUUAGUUUCGAAAGAUACUAAGUUCAGAAGGCACAUGAGGAUCACCCAUGUUUCUC [Long static hairpin v21] (Eterna round: R97, puzzle: Exclusion 4)”, the “apparent KD of MS2 coat protein” value is, setting by setting: (input ligand: FMN 200 uM) 0.597 µM; (input ligand: none) 0.0798 µM.
For “AUAUUGUGAGGAUAUGUACUUAGUAUCGAAAGAUACUAAGUUCAGAAGGCACAUGAGGAUCACCCAUGUUUCUC [Long static hairpin v13] (Eterna round: R97, puzzle: Exclusion 4)”, the “apparent KD of MS2 coat protein” value was 0.805 µM (input ligand: FMN 200 uM) and 0.0635 µM (input ligand: none).
In the case of “AUCACGGAUGUAAGGAUAUACAAAACCAUAAGGUAGUAGAAGGUACAUGAGGAUCACCCAUGUGCAUAUGUUUA [BmEX4 C.14] (Eterna round: R97, puzzle: Brourd's mod of Exclusion 4)”, the “apparent KD of MS2 coat protein” value runs as follows: (input ligand: FMN 200 uM) 0.0185 µM; (input ligand: none) 0.0162 µM.
For the sequence “AUCAGCUCGUCAGGAUAUACAUGCGUGCUUCGGCACGUAUGAUAGAUCACAUGAGGAUCACCCAUGUAGAAGGGACGAGCUGAU [ENG2/4-B3] (Eterna round: R96, puzzle: Exclusion NG 2)”, the “apparent KD of MS2 coat protein” value by setting is: (input ligand: FMN 200 uM) 0.0153 µM; under setting [4], 0.00919 µM; (input ligand: none) 0.0127 µM.
As for “AUCAUGUAAGGAUAUCUGACAUGUGACGAAAGUCACUGUUCAGAGAAGGUACAUGAGGAUCACCCAUGUAGAAC [Ex4-3: 43] (puzzle: Exclusion 4)”, under setting [2], the “apparent KD of MS2 coat protein” value worked out at 0.0628 µM.
With “AUCCAACAUGAGGAUCACCCAUGUGAGGAUAUGCCCAAAACUCUUCGAUCCGAAGAGCGCAGAAGGCACAUGAA [EX1 A.18] (Eterna round: R97, puzzle: Exclusion 1)”, the “apparent KD of MS2 coat protein” value is, setting by setting: (input ligand: FMN 200 uM) 0.0334 µM; (input ligand: none) 0.0132 µM.
As to “AUCGGACAUGAGGAUCACCCAUGUCAGGAUAUCUGGAACCAUUGGCAGAUGAGGGAAAAGAGAAGGGACAGUGG [EX1 C.3] (Eterna round: R97, puzzle: Exclusion 1)”, the “apparent KD of MS2 coat protein” value came to 0.0202 µM (input ligand: FMN 200 uM) and 0.0185 µM (input ligand: none).
As to “AUCGUGGCUCAGGAUAUCAGCCCUGUGGAGUUCUGAGAAGGGAGCACAUGAGGAUCACCCAUGUGAAAGGGUAC [Esdienar] (puzzle: Exclusion 6)”, the “apparent KD of MS2 coat protein” value turned out to be 0.148 µM under setting [1], 0.0456 µM under setting [2] and 0.0408 µM under setting [3].
As to “AUCGUGUGAGGAUAUCGAUGUUGGACGUCUAGGUCUGUGCGCGAGAAGGCACAUGAGGAUCACCCAUGUAAUGG [jl-ex4-4.26 ViennaUCT mod] (Eterna round: R97, puzzle: Exclusion 4)”, the “apparent KD of MS2 coat protein” value (input ligand: FMN 200 uM) is 0.137 µM and the “apparent KD of MS2 coat protein” value (input ligand: none) stood at 0.347 µM.
